Measurements as given in PMC6582607, “Development of a novel ssDNA aptamer targeting neutrophil gelatinase-associated lipocalin and its application in clinical trials”.
Residue numbers refer to the chain shown, from its start.

B1: NA36 (ssDNA)
DNA: AGCAGCACAGAGGTCAGATGCCCATATGCTACTTTGCACACATCCTGGATAGGCTCCTATGCGTGCTACCGTGAA
B2: NA53 (ssDNA)
DNA: AGCAGCACAGAGGTCAGATGGCGCTGGATAGCAAGATCACGTTATCATCGTAAACCCTATGCGTGCTACCGTGAA
B3: NA42 (ssDNA)
DNA: AGCAGCACAGAGGTCAGATGCCGTGCGGATGTACAGGGACTTGGATAGTTTCTGACCTATGCGTGCTACCGTGAA
B4: NA37 (ssDNA)
DNA: B1 DNA
B5: NA40 (ssDNA)
DNA: B2 DNA
B6: NA39 (ssDNA)
DNA: B2 DNA
B7: NA27 (ssDNA)
DNA: B2 DNA with A47G

Biological target: T1, NGAL (neutrophil gelatinase-associated lipocalin) (UniProt P80188 21-198)
Assay: magnetic bead pull-down, qPCR; binding buffer (composition and pH not in material), room temperature, 1 h, NGAL-coated magnetic beads (about 0.20 ug NGAL per uL beads)

T1 sequence (P80188 21-198): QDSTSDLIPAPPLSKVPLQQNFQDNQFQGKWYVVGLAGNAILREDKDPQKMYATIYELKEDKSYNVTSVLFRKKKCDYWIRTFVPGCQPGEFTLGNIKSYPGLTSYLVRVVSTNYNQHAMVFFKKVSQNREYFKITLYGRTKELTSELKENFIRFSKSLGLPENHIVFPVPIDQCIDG

Binder	Kd
B1	43.6 nM
B2	32.5 nM
B3	66.5 nM

Biological target: T1, NGAL (neutrophil gelatinase-associated …)
Assay: magnetic bead pull-down, qPCR; 20 nM; binding buffer (composition and pH not in material), room temperature, 1 h, NGAL-coated magnetic beads (about 0.20 ug NGAL per uL beads)

Binder	binding signal
B4	> 4 dCt (cycles vs bare beads)
B5	> 4 dCt (cycles vs bare beads)
B6	> 4 dCt (cycles vs bare beads)
B7	> 4 dCt (cycles vs bare beads)
